From the supplement of paper PMC9170038

System: K4 kissing-loop RNA reporter
Assay: apparent KD of K4 kissing-loop reporter; higher = weaker reporter binding
Conditions: Eterna round: R107
Protocol: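 RNA-MaP round R107: designed RNA switches with theophylline, tryptophan, arginine or FMN aptamers are transcribed on-chip within common flanks. They are titrated with a labelled K4 kissing-loop RNA reporter in RNA-MaP buffer (100 mM Tris pH 7.5, 80 mM KCl, 4 mM MgCl2), without ligand or with the indicated ligand. Median apparent KD per design.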

[1] = input ligand: theophylline 20 uM
[2] = input ligand: tryptophan 2.4 mM
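Note: bound reporter read as fluorescence of individual clusters on recovered sequencing chips by microscopy, with normalized cluster intensities fitted with a binding model.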

Row | Sequence | apparent KD of K4 kissing-loop reporter (input ligand: FMN 200 uM) | apparent KD of K4 kissing-loop reporter (input ligand: arginine 13.2 mM) | apparent KD of K4 kissing-loop reporter (input ligand: none) | apparent KD of K4 kissing-loop reporter [1] | apparent KD of K4 kissing-loop reporter [2]
1 | UCUGGAGCGUAUGAUACCAGCAGAGAGAGACAGGAAGUAUAGUGAUGUUAUAUGAGAGAAUGCCCUUGGCAGCGUGUGCAGUGGC [#26 K4 Theophylline B Same State] | 55.9 nM | 56.5 nM | 66.8 nM | 53.4 nM | 48 nM
2 | UCUGGUAUAUCUGAUACCAGAGUAUAGUAUCAAUUGCAUAUCCGCAGUGAUGUUGCGGAACUCCCUUGGCAGCAGAUCUAUCUCU [Same State Theophylline B GF 26] | 71.6 nM | 90.6 nM | 81.8 nM | 86.8 nM | 70 nM
3 | UCUUAACUAAAAUAAUGGGAUACCAGUGAUACCAGCCAUAUGCAGGGCCCUUGGCAGCACCCUUGGCAGCCUCGAGUGAUGUUCG [KL-SSTheo-A7 #DoubleAptamer] | 283 nM | 292 nM | 315 nM | 247 nM | 230 nM
4 | UGAACUUUUGCUAGGAACCGUCUAGCUCUUUAGGAUAUCUGGAAACAGAGAAGGAAAGACCUACAGAGUGAUGUUCUGCGUUCAU | 383 nM | 268 nM | 316 nM | 316 nM | 263 nM
5 | UGACAUUGCUCAGAUACCAGACAAGAGGAUCACCCUUGUGCCAAAACGUACUAAAUAAAUGUCCCUUGGCAGCUGAGCAAUGUCU [TheoBX 13] | 82.5 nM | 42.1 nM | 45.9 nM | 77.4 nM | 58.6 nM
6 | UGACAUUGCUCAGAUACCAGACUUGAGGAACACCCAAGUGCCAAAUACGUACAAAUAAAAGUCCCUUGGCAGCUGAGCAAUGUCU [TheoBX 12] | 58.3 nM | 23.5 nM | 48.5 nM | 148 nM | 38.5 nM
7 | UGACUACAUCCUAGUGAUGUUUAGGAUAUGUAGGAUAUGCUGAUAAGCAGAAGGACAGAAGGAAGUGAUGUUCUUAAAGUAGUCU [FmnAX 29 #DoubleAptamer #Double K4 #SwitchBubble #StaticStem] | 644 nM | 783 nM | 1050 nM | 760 nM | 802 nM
8 | UGACUGGACUGAAGGAGCGAGCGAGACAAAGUCUCGGAAAUUCAGUGAUGUUGAUAUAUAACUCAGGUAGGUCGCAGUCUAGUCU [ArgBS 6 #SwitchBubble #StaticStem] | 350 nM | 411 nM | 459 nM | 363 nM | 335 nM
9 | UGACUGGACUGAAGGAGCGAGGACGGUCAUAGACCGAAAUCAGUGAUGUUGAAAGAUAAACCUCAGGUAGGUCGCAGUCUAGUCU [ArgBS 1 #SwitchBubble #StaticStem] | 1070 nM | 918 nM | 790 nM | 546 nM | 1230 nM
10 | UGACUGGACUGAAGGAGCGAGGACGGUCAUAGACCGAAUUCAGUGAUGUUGAAAAUAAAACCUCAGGUAGGUCGCAGUCUAGUCU [ArgBS 3 #SwitchBubble #StaticStem] | 228 nM | 193 nM | 219 nM | 216 nM | 204 nM
11 | UGACUGGACUGAAGGAGCGCGCGAGACAAAGUCUCGAACUCGUAGUGAUGUUAGGAAAUAACGCAGGUAGGUCGCAGUCUAGUCU | 651 nM | 417 nM | 611 nM | 796 nM | 512 nM
12 | UGACUGGACUGAAGGAGCGCUAAACUCCUAGUGAUGUUAGGAAAACGAGACAAAGUCUCGAGGCAGGUAGGUCGCAGUCUAGUCU [ArgBS 18 #SwitchBubble #StaticStem] | 123 nM | 120 nM | 136 nM | 128 nM | 114 nM
13 | UGACUGGACUGAAGGAGCGCUAAACUCCUAGUGAUGUUAGGGAACCGAGACAAAGUCUCGAGGCAGGUAGGUCGCAGUCUAGUCU [FiskerMod 2 - Jieux - Same State - Arginine B] | 295 nM | 253 nM | 307 nM | 359 nM | 288 nM
14 | UGACUGGACUGAAGGAGCGCUGAACUCCUAGUGAUGUUAGGAAAACGAGACAAAGUCUCGAAGCAGGUAGGUCGCAGUCUAGUCU | 138 nM | 101 nM | 112 nM | 138 nM | 115 nM
15 | UGACUGGACUGAAGGAGCGGGAAACUCCUAGUGAUGUUAGGAAUACGAGACAAAGUCUCGACCCAGGUAGGUCGCAGUCUAGUCU [ArgBS 17 #SwitchBubble #StaticStem] | 121 nM | 93.3 nM | 108 nM | 116 nM | 119 nM
16 | UGAGAGUACCGGAUGGAGAAAUUGUAUGAUACCAGAGCAGAUUACCUCCCUUGGCAGCAUGCAUCCUGCUAGUGAUGUUGGCAAC [theeternabot_sameState_KL_Theo_A_48] | 676 nM | 459 nM | 741 nM | 669 nM | 535 nM
17 | UGAGUUUGAGUGAUGUUCAGGCAUUGGUACGAGGAUAUCGAGGAGUUGAGAAGGCGUACUGCUCAACUUUGUAUGAAUACAUACA [FMN A Ex t2b] | 259 nM | 73.4 nM | 106 nM | 117 nM | 103 nM
18 | UGAUAAAGCAGUGAUGUUGCAAGAAAUGAUACCAGUUAAGAAGAGAACCCUUGGCAGCAUAAAGUGCGCUCUAAUGAGUGUGCUU [whbob_SS_Theo_A_w50] | 88.8 nM | 143 nM | 123 nM | 179 nM | 87.6 nM
19 | UGAUACCAGACGGCCGCCACUAGACCAGUCAAAGACUGGAAGUGAUGUUUGAGGAGUGAUGUUCCUAGGACCGGGUCUGGUAUCU [TrypBX 3 #Palindromic #SwitchBubble #StaticStem] | 97.9 nM | 81.7 nM | 90.5 nM | 89 nM | 41.5 nM
20 | UGAUACCAGACGGCCGCCACUCCCGCAGGUCAAAGACCUGCGAAGAAGGUUCUUUAGUGAUGUUGGAGGACCGGGUCUGGUAUCU [FiskerMod 21 - Jieux - Exclusion - Tryptophan B] | 735 nM | 312 nM | 744 nM | 417 nM | 523 nM
21 | UGAUACCAGACGGCCGCCACUCCCGUAAGUCAAAGACUUACCAAGAGAAUCGUCCAGUGAUGUUGGAGGACCGGGUCUGGUAUCU [FiskerMod 8 - Jieux - Exclusion - Tryptophan B] | 922 nM | 845 nM | 998 nM | 732 nM | 682 nM

Row | Sequence | apparent KD of K4 kissing-loop reporter (input ligand: FMN 200 uM) | apparent KD of K4 kissing-loop reporter (input ligand: arginine 13.2 mM) | apparent KD of K4 kissing-loop reporter (input ligand: none) | apparent KD of K4 kissing-loop reporter [1] | apparent KD of K4 kissing-loop reporter [2]
22 | UGAUACCAGACGGCCGCCACUCCCGUAAGUCAAAGACUUACGAAGAGAGUUAUCCAGUGAUGUUGGAGGACCGGGUCUGGUAUCU [FiskerMod 14 - Jieux - Exclusion - Tryptophan B] | 210 nM | 199 nM | 192 nM | 199 nM | 261 nM
23 | UGAUACCAGACGGCCGCCACUCCCGUAAGUCAAAGACUUACGAAGAGAGUUUUCCAGUGAUGUUGGAGGACCGGGUCUGGUAUCU [FiskerMod 15 - Jieux - Exclusion - Tryptophan B] | 186 nM | 168 nM | 175 nM | 174 nM | 232 nM
24 | UGAUACCAGACGGCCGCCACUCCUGCAGUCAAAGACUGCUAAGGAAUAUUCGUCCAGUGAUGUUGGAGGACCGGGUCUGGUAUCU [TrypBX 12 #SwitchBubble #Palindromic #StaticStem] | 1370 nM | 991 nM | 1380 nM | 896 nM | 979 nM
25 | UGAUACCAGACGGCCGCCACUGCACCAGUCAAUGACUGAGCGCGGUGGCGCUCAGUGAUGUUGAGCAGGACCGGGUCUGGUAUCU [Mod of Eli's TrypBX 8 v4] | 147 nM | 117 nM | 136 nM | 145 nM | 93.9 nM
26 | UGAUACCAGACGGCCGCCACUGGUGCAGUCAAAGACUGCUAAAACCAAAUCGUGGAGUGAUGUUCCAGGACCGGGUCUGGUAUCU [TrypBX 20 #SwitchBubble #Palindromic #StaticStem] | 451 nM | 423 nM | 452 nM | 462 nM | 674 nM
27 | UGAUACCAGACGGCCGCCACUUCCGUAAGUCAAAGACUUACCAAGGGAAUCGUCCAGUGAUGUUGGAGGACCGGGUCUGGUAUCU [FiskerMod 6 - Jieux - Exclusion - Tryptophan B] | 960 nM | 744 nM | 1260 nM | 959 nM | 788 nM
28 | UGAUACCAGACGGCCGCCACUUCUGCAAGUCAAAGACUUGCUAAAGGAAUCGUCCAGUGAUGUUGGAGGACCGGGUCUGGUAUCU [FiskerMod 1 - Jieux - Exclusion - Tryptophan B] | 1020 nM | 823 nM | 1170 nM | 638 nM | 772 nM
29 | UGAUACCAGACUGAUACCAGCAAGUGAUGUUUGUUGAUCUAAAGCAGUCAAAGACUGCCUUGCCCUUGGCAGCAGUCUGGUAUCU [TheoBX 27 #SwitchBubble #StaticStem] | 886 nM | 569 nM | 832 nM | 354 nM | 901 nM
30 | UGAUACCAGACUGAUACCAGCCACAGAGUCAAAGACUCUGAUAAAGGAACCAGUGAUGUUGGCCCUUGGCAGCAGUCUGGUAUCU [TheoBX 24 #SwitchBubble #StaticStem] | 131 nM | 113 nM | 118 nM | 107 nM | 156 nM
31 | UGAUACCAGACUGAUACCAGCCAGUGAUGUUGGCUAAUCCGAGAAGGAGUCAAAGACUCCGGCCCUUGGCAGCAGUCUGGUAUCU [TheoBX 4 #SwitchBubble #StaticStem] | 133 nM | 117 nM | 133 nM | 128 nM | 121 nM
32 | UGAUACCAGACUGAUACCAGCGAGUGAUGUUUGCUGAUCUAAAGCAGUCAAAGACUGCCUUGCCCUUGGCAGCAGUCUGGUAUCU [TheoBX 26 #SwitchBubble #StaticStem] | 294 nM | 235 nM | 275 nM | 351 nM | 264 nM
33 | UGAUAGGACAGAAGGAGCGGAAGUGAUGUUUCCAAAAGGCUAAGGUGUCAAAAGACACCCUUCCAGGUAGGUCGCUGUCCUAUCU | 237 nM | 274 nM | 221 nM | 260 nM | 203 nM
34 | UGAUAGGACAGAAGGAGCGGAGCUGGUCAAAGACCAGCAAUACGUUAAAUAGGAGUGAUGUUCCAGGUAGGUCGCUGUCCUAUCU [ArgBX 28 #SwitchBubble #StaticStem] | 131 nM | 121 nM | 121 nM | 101 nM | 87.9 nM
35 | UGAUAGGACAGAAGGAGCGGCAGUGAUGUUGCCAAAAGGAUAAGGUGUCAAAAGACACCCUGCCAGGUAGGUCGCUGUCCUAUCU | 179 nM | 366 nM | 259 nM | 298 nM | 208 nM
36 | UGAUAGGACAGAAGGAGCGGUAGUGAUGUUACCAAAAGUAUAAGGUGUCAAAAGACACCCUACCAGGUAGGUCGCUGUCCUAUCU | 292 nM | 295 nM | 367 nM | 506 nM | 286 nM
37 | UGAUAGGACAGAAGGAGCGGUAGUGAUGUUGCCAAAAGAAUAAGGUGUCAAAAGACACCCUGCCAGGUAGGUCGCUGUCCUAUCU | 139 nM | 189 nM | 144 nM | 188 nM | 120 nM
38 | UGAUAGGAGAGAAGGAGCGGGAGUGAUGUUCCCAAAGAUUGGUCUAGCAAAGCUGGACCCUCCCAGGUAGGUCGCUCUCCUAUCU [KL-XARG-B16] | 382 nM | 419 nM | 434 nM | 405 nM | 357 nM
39 | UGAUGUUUAGGUCACCCAGUGAUGUUGGAAGGAGCGUGCGAAAGCACAGGUAGGUCGCCAAUCUCCUUGUGACCUGAGCAUCUAA [#SwitchBubble 14 #K4Early] | 976 nM | 787 nM | 1050 nM | 979 nM | 854 nM
40 | UGAUGUUUAGUUCACCCAGUGAUGUUGGAAGGAGCGUGCGAAAGCACAGGUAGGUCGCCAACCUAAAAGUGUCUUGAUUAUCUAA [JR_Nu_ExcArginiA_Sub028] | 352 nM | 317 nM | 444 nM | 460 nM | 289 nM
41 | UGAUUUAACUGAAGGAGCGGCAAUUGAUAAGUAAAUAUAGUGAUGUUAUAUAAGAUAGAGAGCCAGGUAGGUCGCAGAGGGAGGA [ExArgB.J] | 169 nM | 139 nM | 159 nM | 159 nM | 129 nM
